Experimental data taken from PMC11257942.

Biological target: major core protein A10 of vaccinia virus (gene product of A10) (vaccinia virus (VACV) strain Western Reserve (WR))
Assay: cryo-EM structure

## major core protein A10 of vaccinia virus (gene product of A10) (natural protein)
  stoichiometry N: 3
